Key:
Assay in all cases: ELISA, antigen coated at 5 µg/mL, anti-HA detection, absorbance at 405 nm
[1] = target: CD28 (human) antigen protein, coated (human, UniProt P10747 19-152)
Description: (§1) (2) The antigen proteins PD-1 (human), PD-1 (monkey), PD-1 (mice), ICOS(human), CTLA-4 (human), CD28 (human), IgG1 (human) were coated overnight at 4° C. with 0.5 μg per well (5 μg/mL, 100 μL), and IgG1 was coated as a control.
(§2) (3) The plates were washed by PBST (×5) next day, and 200 μL 1% BSA was added to block in RT for 2 hours;

[2] = target: T1, PD-1 (mice) antigen protein, coated (mouse, UniProt Q02242 25-167, limits assumed)
T1 construct: also called mouse PD-1
T1 sequence (looked up): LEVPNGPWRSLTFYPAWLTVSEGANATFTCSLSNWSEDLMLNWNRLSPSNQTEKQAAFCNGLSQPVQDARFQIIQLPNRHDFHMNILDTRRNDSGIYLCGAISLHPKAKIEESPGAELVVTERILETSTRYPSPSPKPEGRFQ
Description: as §1, §2

[3] = target: T2, ICOS (human) antigen protein, coated (human, UniProt Q9Y6W8 21-140, limits assumed)
T2 sequence (looked up): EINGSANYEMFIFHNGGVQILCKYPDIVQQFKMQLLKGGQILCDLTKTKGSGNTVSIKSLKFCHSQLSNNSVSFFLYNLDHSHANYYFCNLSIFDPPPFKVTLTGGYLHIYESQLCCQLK
Description: as §1, §2

[4] = target: T3, CTLA-4 (human) antigen protein, coated (human, UniProt P16410 36-161, limits assumed)
T3 sequence (looked up): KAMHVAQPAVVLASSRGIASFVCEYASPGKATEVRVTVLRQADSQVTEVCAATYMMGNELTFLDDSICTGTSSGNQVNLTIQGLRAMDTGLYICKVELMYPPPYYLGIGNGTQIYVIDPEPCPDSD
Description: as §1, §2

Measured: binding result

Sequence of CD28 (human) antigen protein, coated (P10747 19-152 limits assumed): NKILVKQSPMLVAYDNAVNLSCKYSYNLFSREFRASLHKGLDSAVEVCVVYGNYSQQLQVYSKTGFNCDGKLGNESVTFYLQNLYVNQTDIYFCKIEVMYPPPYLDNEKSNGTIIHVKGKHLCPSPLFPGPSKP

B1: humanized PD-1 nanobody (amino acid sequence SEQ ID NO.: 14) (VHH)
VHH: QVQLQESGGGLVQPGGSLRLSCAASGSTYLRFSMGWFRQVPGKGLEGVAAIGGDGRTSYADSVKGRFTISKDNSKNTLYLDMNSLRAEDTAVYYCAAAVLLDGSFSLLAPLVPYKYDYWGQGTLVTVSS
modifications: biotinylated (Example 9, sites not stated)
notes: also called Nanobody after humanization; humanized nanobody; not shown: HA and His tags from the pMECS vector
no binding (tested: 10 µg/mL): all assays above
